Laboratory results: publication PMC11832431 (MedComm, 2025)

Target: T1, His-DUB3 (deubiquitinating enzyme 3) (UniProt Q6R6M4 1-530)
T1 construct: deubiquitinating enzyme 3 (DUB3); also called purified recombinant His-DUB3; source: purified recombinant (cloned into PET28A)
T1 sequence (looked up): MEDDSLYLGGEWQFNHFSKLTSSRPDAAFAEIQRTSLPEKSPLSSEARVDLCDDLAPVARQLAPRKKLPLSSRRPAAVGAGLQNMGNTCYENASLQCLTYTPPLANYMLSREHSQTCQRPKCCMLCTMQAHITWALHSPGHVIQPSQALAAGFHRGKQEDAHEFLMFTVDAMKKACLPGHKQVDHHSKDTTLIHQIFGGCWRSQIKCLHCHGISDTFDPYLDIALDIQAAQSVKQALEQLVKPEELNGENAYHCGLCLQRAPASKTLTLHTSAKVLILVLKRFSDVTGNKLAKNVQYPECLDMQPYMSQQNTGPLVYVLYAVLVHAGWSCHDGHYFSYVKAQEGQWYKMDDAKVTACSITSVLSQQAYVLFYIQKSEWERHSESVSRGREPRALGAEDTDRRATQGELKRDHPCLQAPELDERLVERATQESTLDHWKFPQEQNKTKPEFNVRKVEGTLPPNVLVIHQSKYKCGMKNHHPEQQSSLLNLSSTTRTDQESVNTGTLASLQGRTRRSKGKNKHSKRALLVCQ
Test: pull-down; purified recombinant GST or GST fusion protein incubated in vitro (cell-free) with purified recombinant His-tagged protein; blot and Coomassie blue staining
Details: both partners purified

B1: GST-CDK4 (cyclin-dependent kinase 4) (enzyme, UniProt P11802 1-303, looked up)
chain: MATSRYEPVAEIGVGAYGTVYKARDPHSGHFVALKSVRVPNGGGGGGGLPISTVREVALLRRLEAFEHPNVVRLMDVCATSRTDREIKVTLVFEHVDQDLRTYLDKAPPPGLPAETIKDLMRQFLRGLDFLHANCIVHRDLKPENILVTSGGTVKLADFGLARIYSYQMALTPVVVTLWYRAPEVLLQSTYATPVDMWSVGCIFAEMFRRKPLFCGNSEADQLGKIFDLIGLPPEDDWPRDVSLPRGAFPPRGPRPVQSVVPEMEESGAQLLLEMLTFNPHKRISAFRALQHSYLHKDEGNPE
notes: cyclin-dependent kinase 4 (CDK4); CDK4 and CDK6 were cloned as separate genes, so they are written as two molecules; No cyclin is mentioned; also called GST-CDK4/6; source: purified recombinant (cloned into pGEX4T-1)
binding result: binds
